Common to all, as to assay: fluorescence anisotropy; FA: 20 mM HEPES-NaOH pH 7.5, 100 mM NaCl, 10% glycerol, 20 C, 10 nM FAM-RNA; competition: 150 nM Egl512-819 + 10 nM FAM-K10 TLS, same buffer
Conditions in all cases: protein: recombinant; tags: N-terminal GST; label: 5'-6-FAM; hairpin with two bulges
In general terms: Fluorescence polarisation rises when a labelled molecule tumbles more slowly, as on binding a larger partner.

One data set concerns the target T1, R788A (Drosophila melanogaster, UniProt Q9W1K4 512-819, R788A).
T1 sequence: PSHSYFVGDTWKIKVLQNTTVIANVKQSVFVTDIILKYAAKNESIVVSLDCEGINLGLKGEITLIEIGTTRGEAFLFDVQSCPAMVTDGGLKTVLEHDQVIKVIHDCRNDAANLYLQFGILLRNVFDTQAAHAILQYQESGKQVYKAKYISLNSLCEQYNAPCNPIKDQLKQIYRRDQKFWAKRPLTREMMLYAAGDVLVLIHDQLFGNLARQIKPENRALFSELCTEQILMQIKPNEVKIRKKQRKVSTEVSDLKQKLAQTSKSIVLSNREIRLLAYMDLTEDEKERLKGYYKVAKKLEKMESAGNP

The target of the next data set is T2, K755A (Drosophila melanogaster, UniProt Q9W1K4 512-819, K755A).
T2 sequence: T1 sequence with K244A, A277R

A further data set concerns the target T3, K754E (Drosophila melanogaster, UniProt Q9W1K4 512-819, K754E).
T3 sequence: T1 sequence with K243E, A277R

For another data set, the target named is T4, Egl1-819 (Drosophila melanogaster, UniProt Q9W1K4 1-819).
T4 sequence: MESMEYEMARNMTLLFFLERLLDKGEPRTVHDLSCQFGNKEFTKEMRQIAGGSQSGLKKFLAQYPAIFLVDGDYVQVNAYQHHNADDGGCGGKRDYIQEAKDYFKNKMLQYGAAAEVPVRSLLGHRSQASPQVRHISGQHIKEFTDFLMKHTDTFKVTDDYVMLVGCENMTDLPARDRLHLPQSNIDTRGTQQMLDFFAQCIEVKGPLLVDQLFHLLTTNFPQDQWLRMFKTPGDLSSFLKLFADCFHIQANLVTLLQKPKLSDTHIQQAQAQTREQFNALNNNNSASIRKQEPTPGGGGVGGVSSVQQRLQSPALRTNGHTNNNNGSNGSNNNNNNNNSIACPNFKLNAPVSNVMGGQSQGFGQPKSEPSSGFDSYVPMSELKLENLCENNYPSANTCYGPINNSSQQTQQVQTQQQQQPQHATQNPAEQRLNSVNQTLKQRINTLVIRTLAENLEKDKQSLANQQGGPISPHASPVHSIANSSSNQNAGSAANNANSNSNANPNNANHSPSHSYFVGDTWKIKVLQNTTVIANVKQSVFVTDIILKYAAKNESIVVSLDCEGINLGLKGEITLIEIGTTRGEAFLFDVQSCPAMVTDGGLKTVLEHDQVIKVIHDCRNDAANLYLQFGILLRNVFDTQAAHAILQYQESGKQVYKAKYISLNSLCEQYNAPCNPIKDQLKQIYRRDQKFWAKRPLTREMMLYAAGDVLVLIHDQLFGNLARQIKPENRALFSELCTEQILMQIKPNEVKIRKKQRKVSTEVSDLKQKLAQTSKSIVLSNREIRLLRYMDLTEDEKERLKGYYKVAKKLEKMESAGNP

In a further data set the target is T5, R785A (Drosophila melanogaster, UniProt Q9W1K4 512-819, R785A).
T5 sequence: T1 sequence with R274A, A277R

Residue numbers refer to the chain shown, from its start.

A word on the Kd: it is the concentration at which binding is half-saturated. CUUGAUUGUAUUUUUAAAUUAAUUCUUAAAAACUACAAAUUAAG (structured_RNA) [K10 TLS (FAM)]: the dissociation constant (Kd) with R788A was found to be 207 ± 43 nM; in the data set with K755A, 131 ± 5 nM; in the data set with K754E, 263 ± 16 nM; in the data set with Egl1-819, 127 ± 7 nM; in the data set with R785A it was 194 ± 10 nM.
